According to patent publication US12325756:

How the values were obtained:
[1] = target: human mesothelin on tumor cells (C30-M, C30M/F, A1847) (human), Q13421; assay: cell-based or functional assay
[2] = target: human alpha-folate receptor on tumor cells (C30-F, C30M/F, A1847) (human), P15328; assay: cell-based or functional assay
Sequence of human alpha-folate receptor on tumor cells (C30-F, C30M/F, A1847) (human), P15328 (P15328 25-234, stated change not applied): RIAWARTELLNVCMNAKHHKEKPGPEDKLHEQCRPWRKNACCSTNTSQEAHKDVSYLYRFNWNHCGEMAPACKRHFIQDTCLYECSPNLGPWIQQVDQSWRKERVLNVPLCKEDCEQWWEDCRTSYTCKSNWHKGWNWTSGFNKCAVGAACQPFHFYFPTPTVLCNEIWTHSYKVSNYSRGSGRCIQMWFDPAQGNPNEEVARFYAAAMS

Sequence of human mesothelin on tumor cells (C30-M, C30M/F, A1847) (human), Q13421 (Q13421 other isoform, or with tags, fused parts or gaps C30M C30M): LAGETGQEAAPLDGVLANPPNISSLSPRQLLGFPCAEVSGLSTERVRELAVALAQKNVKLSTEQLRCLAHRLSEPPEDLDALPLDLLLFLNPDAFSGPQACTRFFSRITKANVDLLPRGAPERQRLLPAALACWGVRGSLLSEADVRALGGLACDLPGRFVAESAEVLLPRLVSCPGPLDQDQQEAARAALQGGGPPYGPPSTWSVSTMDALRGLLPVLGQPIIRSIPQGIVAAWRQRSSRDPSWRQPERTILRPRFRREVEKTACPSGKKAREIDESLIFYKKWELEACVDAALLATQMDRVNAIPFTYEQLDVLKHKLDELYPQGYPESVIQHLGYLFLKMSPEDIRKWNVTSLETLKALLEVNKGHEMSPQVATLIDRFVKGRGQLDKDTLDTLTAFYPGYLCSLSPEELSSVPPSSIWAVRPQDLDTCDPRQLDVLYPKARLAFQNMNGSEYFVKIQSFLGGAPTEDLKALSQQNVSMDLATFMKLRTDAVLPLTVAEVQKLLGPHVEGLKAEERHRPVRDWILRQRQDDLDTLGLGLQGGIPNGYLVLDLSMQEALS

Binder	apoptosis (annexin V / 7-AAD) after 3 days with A1847 [1] [%]	apoptosis (annexin V / 7-AAD) after 3 days with A1847 [2] [%]
P4-z anti-mesothelin chimeric antigen receptor (P4 scFv - CD8a hinge and transmembrane region - CD3z) (protein) GSQVQLQQSGPGLVTPSQTLSLTCAISGDSVSSNSATWNWIRQSPSRGLEWLGRTYYRSKWYNDYAVSVKSRMSINPDTSKNQFSLQLNSVTPEDTAVYYCARGMMTYYYGMDVWGQGTTVTVSSGILGSGGGGSGGGGSGGGGSQPVLTQSSSLSASPGASASLTCTLRSGINVGPYRIYWYQQKPGSPPQYLLNYKSDSDKQQGSGVPSRFSGSKDASANAGVLLISGLRSEDEADYYCMIWHSSAAVFGGGTQLTVLSASTTTPAPRPPTPAPTIASRPLSLRPEACRPAAGGAVHTRGLDFACDIYIWAPLAGTCGVLLLSLVITLYCRVKFSRSADAPAYQQGQNQLYNELNLGRREEYDVLDKRRGRDPEMGGKPRRKNPQEGLYNELQKDKMAEAYSEIGMKGERRRGKGHDGLYQGLSTATKDTYDALHMQALPPR	34	
MOV19-28 (F-28) costimulatory-only anti-aFR chimeric antigen receptor (MOv-19 scFv - CD8a hinge - CD28 transmembrane - CD28 intracellular domain) (protein) GSSRAAQPAMAQVQLQQSGAELVKPGASVKISCKASGYSFTGYFMNWVKQSHGKSLEWIGRIHPYDGDTFYNQNFKDKATLTVDKSSNTAHMELLSLTSEDFAVYYCTRYDGSRAMDYWGQGTTVTVSSGGGGSGGGGSGGGGSDIELTQSPASLAVSLGQRAIISCKASQSVSFAGTSLMHWYHQKPGQQPKLLIYRASNLEAGVPTRFSGSGSKTDFTLNIHPVEEEDAATYYCQQSREYPYTFGGGTKLEIKRAAASTTTPAPRPPTPAPTIASQPLSLRPEACRPAAGGAVHTRGLDFACDFWVLVVVGGVLACYSLLVTVAFIIFWVRSKRSRLLHSDYMNMTPRRPGPTRKHYQPYAPPRDFAAYRS		0.5 to 1
